Measured values: paper PMC7264293, “Multi-site-mediated entwining of the linear WIR-motif around WIPI β-propellers for autophagy” (Nature Communications, 2020)
No end group written: not given here.

Tests used:
[1] = system: NRK cells with double knock out of ATG2A/ATG2B and stable expression of GFP-LC3; assay: Autophagic flux in ATG2A/ATG2B DKO NRK cells in the presence of bafilomycin A1; type: cell-based, rat; conditions: ATG2A/ATG2B-depleted NRK cells without ATG2A transfection; 10 nM, 2 h
Protocol: NRK cells with double knock out of ATG2A/ATG2B and stably transfected with GFP-LC3 were generous gifts from L.Y., Tsinghua University. DNA sequences encoding full-length ATG2A and its various mutants were cloned into the pCAG-Tandem-Strep-Flag vector. Cells were cultured in DMEM (GIBCO) supplemented with 10% (v/v) fetal bovine serum, 100 U/ml penicillin and 0.1 mg/ml streptomycin and were grown at 37 °C in a humidified atmosphere containing 5% (v/v) CO2. Cells were transfected with wild-type ATG2A and various mutants by the electroporation apparatus (Bio-Rad) according to the manufacturer’s instructions. After 48 h, cells were washed three times by PBS and fixed by 4% (w/v) paraformaldehyde. […] ATG2A and its various mutants were detected by immunofluorescence with the anti-Flag primary antibody (Sigma-Aldrich, F1804, 1:300 dilution) and dylight 594 secondary antibody (EarthOx, E032410-01, 1:500 dilution). Fluorescence images were obtained on an inverted confocal microscope (LSM 880, Carl Zeiss) equipped with a 100 × oil-immersion objective lens (NA = 1.30). […] All the fluorescence images were processed and analyzed using the ZEN imaging software (Carl Zeiss). […]
μm. (b) Quantification of the increment of LC 3 -positive structures with bafilomycin […]
A1 treatment. The increment o f LC 3 -positive structures per cell was quantified with […]
used for quantifi cation (n = 3) . […]

[2] = system: NRK cells with double knock out of ATG2A/ATG2B and stable expression of GFP-LC3; assay: LC3-positive structures in ATG2A/ATG2B DKO NRK cells transfected with ATG2A; type: cell-based, rat; conditions: transfection of full-length ATG2A into ATG2A/B-depleted NRK cells
Protocol: NRK cells with double knock out of ATG2A/ATG2B and stably transfected with GFP-LC3 were generous gifts from L.Y., Tsinghua University. DNA sequences encoding full-length ATG2A and its various mutants were cloned into the pCAG-Tandem-Strep-Flag vector. Cells were cultured in DMEM (GIBCO) supplemented with 10% (v/v) fetal bovine serum, 100 U/ml penicillin and 0.1 mg/ml streptomycin and were grown at 37 °C in a humidified atmosphere containing 5% (v/v) CO2. Cells were transfected with wild-type ATG2A and various mutants by the electroporation apparatus (Bio-Rad) according to the manufacturer’s instructions. After 48 h, cells were washed three times by PBS and fixed by 4% (w/v) paraformaldehyde. For bafilomycin A1 treatment, cells were cultured in the complete medium containing 10 nM bafilomycin A1 for 2 h before being fixed. ATG2A and its various mutants were detected by immunofluorescence with the anti-Flag primary antibody (Sigma-Aldrich, F1804, 1:300 dilution) and dylight 594 secondary antibody (EarthOx, E032410-01, 1:500 dilution). Fluorescence images were obtained on an inverted confocal microscope (LSM 880, Carl Zeiss) equipped with a 100 × oil-immersion objective lens (NA = 1.30). Confocal settings used for image capture were held constant in comparison experiments. All the fluorescence images were processed and analyzed using the ZEN imaging software (Carl Zeiss). […]

WIPI3-Δloop = biological target: T1, WIPI3-Δloop (Homo sapiens, UniProt Q5MNZ6, DEL264-281/DEL75-80); assay: ITC assay, WIR-peptide and its mutants binding to WIPI3-Δloop; conditions: WIPI3-Δloop (Fig. 3e, Supplementary Figs. 6, 7)
T1 construct: GB1-His6 (cleaved yes); made in house; host or cells: Escherichia coli BL21(DE3)
Protocol: (§1) DNA sequences encoding human WIPI3, WIPI3-Δloop, and two ATG2A fragments (1358–1404 and 1374–1404) were each cloned into a modified pET32a vector. The generation of the fusion construct of WIPI3-Δloop with ATG2A(1374–1404) and the mutations in WIPI3 and the ATG2A fragment were performed by using the standard PCR-based mutagenesis method and confirmed by DNA sequencing. All the primers used in the study were listed in Supplementary Table 3. Recombinant proteins were expressed in Escherichia coli BL21(DE3) (Invitrogen, C6000-03) host cells at 16 °C. […] The eluted proteins were further purified by size-exclusion chromatography (Superdex-200 26/60, GE healthcare). For WIPI3 proteins, after cleavage of the tag, the resulting proteins were purified by another step of size-exclusion chromatography with the buffer containing 50 mM Tris-HCl, pH 8.0, 100 mM NaCl, 1 mM EDTA, 1 mM DTT. For ATG2A fragments, recombinant proteins were purified in the same buffer without cleavage of the tag.
ITC assay was performed using a MicroCalorimeter ITC200 (GE Healthcare Life Sciences, USA) at 25 °C. Prior to the experiment, the protein samples were dialyzed in the buffer containing 50 mM Tris-HCl, pH 8.0, 100 mM NaCl, 1 mM EDTA, and 1 mM DTT. WIPI3 proteins were put in the sample cell and GB1-tagged ATG2A fragments were in the syringe of the instrument. In each experiment, the ATG2A fragment was sequentially injected into the stirred calorimeter cell initially containing the WIPI3 protein sample with the injection sequence of 20 × 2 µl at 2-min intervals. The heat of dilution obtained by the titration of the ATG2A fragment into the buffer was subtracted. The integrated, corrected, and concentration-normalized peak areas of the raw data were finally fitted with a model of one binding site using ORIGIN 7.0 (OriginLab).

WIPI3-Δloop N19A/D21A = assay: ITC assay, WIR-peptide binding to WIPI3-Δloop N19A/D21A; set-up: species or system human; conditions: WIPI3-Δloop N19A/D21A mutant (Supplementary Fig. 5b)
Protocol: as §1
ITC assay was performed using a MicroCalorimeter ITC200 (GE Healthcare Life Sciences, USA) at 25 °C. […]
Supplementary Fig. 5 Structural analysis of the A -B loop of blade 1. […] (b) The binding affinity between the W IR -pept ide and th e W IP I3 -Δloop N19A/D21 A mutant determined b y IT C ex periments. […]

T1 sequence (Q5MNZ6 with tags, fused parts or gaps DEL75-80/DEL264-281): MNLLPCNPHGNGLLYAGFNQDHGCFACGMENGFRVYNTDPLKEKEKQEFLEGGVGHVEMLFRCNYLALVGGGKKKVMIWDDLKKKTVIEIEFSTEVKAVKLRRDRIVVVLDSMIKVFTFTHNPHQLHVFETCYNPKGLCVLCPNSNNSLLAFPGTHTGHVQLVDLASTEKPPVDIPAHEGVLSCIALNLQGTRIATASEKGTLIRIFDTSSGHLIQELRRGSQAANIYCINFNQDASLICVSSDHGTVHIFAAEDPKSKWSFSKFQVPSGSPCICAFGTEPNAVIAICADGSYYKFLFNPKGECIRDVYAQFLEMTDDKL

Molecule | effect of the WIR-peptide mutation on the binding, in words (WIPI3-Δloop) | also measured
CO/C1=C\C(C)=C\[C@@H](C)[C@@H](O)[C@@H](C)C/C(C)=C/C=C/[C@H](OC)[C@@H]([C@@H](C)[C@@H](O)[C@H](C)[C@@]2(O)C[C@@H](O)[C@H](C)[C@@H](C(C)C)O2)OC1=O [bafilomycin A1] | – | increase of LC3-positive structures in the presence of bafilomycin A1, in words [1]: No obvious increase
ATG2A WT: full-length wild-type ATG2A, Tandem-Strep-Flag-tagged, expressed by transfection | – | rescue of the depletion defect (large LC3-positive clusters), in words [2]: could rescue the depletion defect
WIR-peptide D1393A: WIR-peptide with D1393A mutation (PRDGEPVVTQLHPGPIVVRAGYFSRPIGSTD; also: GB1 tag, end not given here, His6 tag, end not given here) | disrupted the binding | –
WIR-peptide V1380A: WIR-peptide with V1380A point mutation (PRDGEPAVTQLHPGPIVVRDGYFSRPIGSTD; also: GB1 tag, end not given here, His6 tag, end not given here) | affected the binding | –
WIR-peptide V1381A: WIR-peptide with V1381A point mutation (PRDGEPVATQLHPGPIVVRDGYFSRPIGSTD; also: GB1 tag, end not given here, His6 tag, end not given here) | decreased the binding more severely | –
WIR-peptide V1391Q: WIR-peptide with V1391Q point mutation (PRDGEPVVTQLHPGPIVQRDGYFSRPIGSTD; also: GB1 tag, end not given here, His6 tag, end not given here) | severely impaired the binding | –
WIR-peptide: GB1-tagged recombinant short fragment (1374–1404) of ATG2A, minimum WIPI-interacting region (PRDGEPVVTQLHPGPIVVRDGYFSRPIGSTD; also: GB1 tag, end not given here, His6 tag, end not given here) | – | binding of the WIR-peptide, in words (WIPI3-Δloop N19A/D21A): abolished the binding
